Test results: article PMC6721657

Molecular target: full length extracellular fragment of FGFR1-IIIc fused to the Fc (UniProt P11362)
Test: BLI; FGFR1c-Fc loaded on Protein A biosensors (20 μg/mL, 600 s); FGF1 proteins 100 to 800 nM in solution; PBS, 25 °C, 1000 rpm; global fit with the 2:1 heterogeneous ligand model and steady state analysis; three independent experiments

UniProt P11362, sequence (P11362 22-376): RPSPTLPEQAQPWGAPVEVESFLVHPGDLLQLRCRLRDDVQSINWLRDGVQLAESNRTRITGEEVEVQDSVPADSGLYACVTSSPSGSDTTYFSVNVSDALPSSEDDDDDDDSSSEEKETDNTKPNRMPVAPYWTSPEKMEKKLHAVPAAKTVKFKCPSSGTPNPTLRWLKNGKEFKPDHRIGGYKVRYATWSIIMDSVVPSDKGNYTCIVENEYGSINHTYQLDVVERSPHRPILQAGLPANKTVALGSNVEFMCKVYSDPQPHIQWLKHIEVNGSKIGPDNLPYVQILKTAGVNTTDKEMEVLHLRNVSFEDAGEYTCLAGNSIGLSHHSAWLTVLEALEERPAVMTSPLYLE

KD1 (2:1 heterogeneous ligand model)	KD2 (2:1 heterogeneous ligand model)	Substance
1.02e-07	1.05e-07	FGF1 Q40P/S47I/H93G variant (Ala-FGF1 21-154) (ligand)
291 nM	152 nM	FGF1 R35E mutant (Ala-FGF1 21-154) (ligand)
477 nM	690 nM	FGF1 R35E/Q40P/S47I/H93G mutant (Ala-FGF1 21-154) (ligand)
46.9 nM	75.6 nM	wild-type fibroblast growth factor 1, truncated form (Ala-FGF1 21-154) (ligand)
